Patent publication US20250152705A1, “COMBINATION THERAPY COMPRISING AN ANTI-IL-23 ANTIBODY AND A CORTICOSTEROID FOR TREATING PSORIASIS” (priority 2022, published 2025)

Tests used:
[1] = system: moderate to severe plaque psoriasis; assay: Prospective, open-label study of effectiveness of tildrakizumab plus topical halcinonide ointment; type: in vivo, human; conditions: for improvement of mean DLQI from baseline: patients with BSA≤3% at week 16, no halcinonide ointment
[2] = system: patients with moderate to severe plaque psoriasis; assay: Safety outcomes (AEs, SAEs) in the open-label study; type: in vivo, human; conditions: through week 24
Experimental: This was a single center, prospective, open-label study to evaluate the effectiveness and safety of tildrakizumab (ILUMYA® [tildrakizumab-asmn] in combination with halcinonide ointment (HALOG® ointment [Halcinonide Ointment, USP, 0.1%) for treating moderate to severe plaque psoriasis. The study protocol was approved by an institutional review board and the study was conducted in accordance with ethical guidelines. Written informed consent was obtained by all patients before initiating treatment.
All enrolled patients received tildrakizumab (100 mg) by subcutaneous injection at weeks 0, 4, and 16. Patients with BSA>3% at week 16 applied halcinonide ointment twice daily for 4 weeks and then continued without halcinonide for an additional 4 weeks of follow up. Patients with BSA≤3% at week 16 were also followed up to week 24. All patients were evaluated for safety and efficacy at weeks 4, 8, 16, 20 and 24.
The primary endpoint of the study was the proportion of patients with BSA≤3% at week 16. […] Improvements in PGA, the composite PGA×BSA measure, and DLQI were also evaluated as secondary endpoints. […]
A cohort of approximately 25 participants was planned for enrollment in the study. […] AEs and SAEs were summarized descriptively by frequency and severity, and their causal relationship to treatment was assessed.

[3] = patients with BSA>3% at week 16, week 16
[4] = patients with BSA≤3% at week 16, no halcinonide, week 16

B1: tildrakizumab (antibody, chains of the INN, looked up, V domains shown)
VH: QVQLVQSGAEVKKPGASVKVSCKASGYIFITYWMTWVRQAPGQGLEWMGQIFPASGSADYNEKFEGRVTMTTDTSTSTAYMELRSLRSDDTAVYYCARGGGGFAYWGQGTLVTVSS
VL: DIQMTQSPSSLSASVGDRVTITCRTSENIYSYLAWYQQKPGKAPKLLIYNAKTLAEGVPSRFSGSGSGTDFTLTISSLQPEDFATYYCQHHYGIPFTFGQGTKVEIK
- decrease of mean DLQI from baseline ([1]; all patients, week 16): 68%
- proportion of patients achieving PASI 75 ([1]; all patients, week 16): 60.9%
- proportion of patients achieving PASI 90 ([1]; all patients, week 16): 17.4%
- proportion of patients achieving PASI 100 (complete resolution) ([1]; all patients, week 16): 4.3%
- proportion of patients with BSA≤1% ([1]; all patients, week 16): 21.7%
- reduction in mean BSA involvement from baseline ([1]; all patients, week 16): 74%
- proportion of patients reporting a DLQI score of 0 or 1 ([1]; all patients, week 16 (baseline 4.0%)): 39.2%
- mean BSA involvement ([1]; all patients, week 16 (baseline 19.1%)): 5.0%
- proportion of patients with BSA≤3% ([1]; all patients, week 16, tildrakizumab 100 mg sc at weeks 0, 4, 16): 52.2%
- BSA≤3% response at weeks 20 and 24 ([1]; most patients with BSA≤3% at week 16 (no halcinonide use) who completed the study): maintained a BSA≤3%
- reduction from baseline in mean BSA [1, 3]: 55%
- reduction from baseline in mean PGA [1, 3]: 29%
- reduction from baseline in mean PGA×BSA [1, 3]: 64%
- reduction in mean DLQI from baseline [1, 3]: 50%
- improvement of mean DLQI from baseline ([1]; week 16): 84%
- improvement of mean DLQI from baseline ([1]; weeks 20 and 24): remained at similar levels
- BSA, PGA and PGA×BSA responses ([1]; patients with BSA≤3% at week 16, no halcinonide, through week 24): maintained
- reduction of mean BSA from baseline [1, 4]: 89%
- reduction of mean PGA from baseline [1, 4]: 60%
- reduction of mean PGA×BSA from baseline [1, 4]: 95%
- number of patients with BSA>3% ([1]; week 16): 11 patients
- number of patients with BSA≤3% ([1]; week 16): 12 patients
- serious adverse events (SAEs) [2]: no SAEs
- tolerability [2]: well tolerated
